Where “and” joins values, the source holds several entries; their conditions need not be identical. Identical values can stand only once. Blank lines part the entries; values can stand above or below the binder they belong to.
Experiments:
[1] = molecular target: T1, rhodanese from bovine liver (bovine, UniProt P00586 1-297); assay: co-sedimentation; heat aggregation assay with purified proteins: 8 to 25 µg of proteins in 50 µL MOPS 50 mM pH 7.5, DTT 1 mM, EDTA 1 mM, heated 20 min at 50 °C, 15 min on ice, centrifuged 30 min at 20,000 g; supernatants and pellets by SDS-PAGE; 1:1 mass ratio or molar ratios up to 9:1; settings: both partners purified
T1 construct: rhodanese (thiosulfate sulfurtransferase) from bovine liver; called a monomeric enzyme of 33 kDa; In the assays it is heat denatured (50 °C) and aggregating; source: bought: Merck KGaA (rhodanese from bovine liver II)
T1 sequence (looked up): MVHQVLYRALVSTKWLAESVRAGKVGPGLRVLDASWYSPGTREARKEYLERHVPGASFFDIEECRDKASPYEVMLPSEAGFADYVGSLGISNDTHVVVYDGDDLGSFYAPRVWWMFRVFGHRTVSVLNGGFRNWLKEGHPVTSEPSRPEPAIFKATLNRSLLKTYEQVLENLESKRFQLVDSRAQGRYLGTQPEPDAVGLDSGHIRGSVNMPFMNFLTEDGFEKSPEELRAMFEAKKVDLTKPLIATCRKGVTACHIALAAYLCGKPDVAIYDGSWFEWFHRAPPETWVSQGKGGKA

[2] = molecular target: the molecule itself; assay: SEC; purified HSP22rec (100 µg) at 20 °C; Superdex 200 10/300GL, 0.25 mL/min, 20 mM Tris pH 7.4, 1 mM EDTA, 150 mM NaCl; masses from a calibration curve with standard proteins
[3] = molecular target: the molecule itself; assay: SEC; pea seed mitochondrial soluble proteins (7 mg) separated at 20 °C; fractions analysed by Western blot with the anti-HSP22 Cterm antibody

binding result [1]: binds
B1: recombinant HSP22 (HSP22rec), mature mitochondrial small heat shock protein HSP22 from pea (natural protein, UniProt P46254 32-202, looked up)
chain: FNTNAMRQYDQHSDDRNVDVYRHSFPRTRRDDLLLSDVFDPFSPPRSLSQVLNMVDLLTDNPVLSAASRRGWDARETEDALFLRLDMPGLGKEDVKISVEQNTLTIKGEEGAKESEEKEKSGRRFSSRIDLPEKLYKIDVIKAEMKNGVLKVTVPKMKEEERNNVINVKVD
notes: mature HSP22 of pea, amplified from a cDNA encoding the HSP22 precursor (UniProtKB P46254); 19.5 kDa and 170 residues stated; Cloned by NdeI/BamHI into pET3a, so an added initiator methionine is likely (surmise); No tag is mentioned; source: E. coli B834 pLys (pET3a, pET-HSP22), purified (anion exchange HitrapQ, two SEC steps on Superdex 200); also unpurified in soluble extract of the …
stoichiometry N [2]: 20 mer and 12 mer and 8 mer

B2: native HSP22 of pea seed mitochondria (natural protein, UniProt P46254 32-202, looked up)
chain: B1 chain
notes: mitochondrial small heat shock protein HSP22 of pea, native protein in the soluble (matrix) extract of mitochondria from 22 h imbibed pea seeds; Detected by Western blot with anti-HSP22 peptide antibodies; source: endogenous, soluble protein extract of pea seed mitochondria
stoichiometry N [3]: 2 mer and 3 mer

From PMC6981728, “The Mitochondrial Small Heat Shock Protein HSP22 from Pea is a Thermosoluble Chaperone Prone to Co-Precipitate with Unfolding Client Proteins” (International Journal of Molecular Sciences, 2019)
